# T1: recombinant RNase H2 complex (hRNASEH2BCA) (human, UniProt Q5TBB1 1-312; Q8TDP1 1-164; O75792 1-299)
# T1 construct: RNASEH2B, human, non-catalytic accessory subunit of RNase H2; RNASEH2C, human, non-catalytic accessory subunit of RNase H2; RNASEH2A, human, catalytic subunit of RNase H2; Heterotrimer formed beforehand by co-expression; also called RH2; source: E. coli, purified (GST pulldown, then AKTA FPLC); copies: + +
# T1 sequence (looked up) 1: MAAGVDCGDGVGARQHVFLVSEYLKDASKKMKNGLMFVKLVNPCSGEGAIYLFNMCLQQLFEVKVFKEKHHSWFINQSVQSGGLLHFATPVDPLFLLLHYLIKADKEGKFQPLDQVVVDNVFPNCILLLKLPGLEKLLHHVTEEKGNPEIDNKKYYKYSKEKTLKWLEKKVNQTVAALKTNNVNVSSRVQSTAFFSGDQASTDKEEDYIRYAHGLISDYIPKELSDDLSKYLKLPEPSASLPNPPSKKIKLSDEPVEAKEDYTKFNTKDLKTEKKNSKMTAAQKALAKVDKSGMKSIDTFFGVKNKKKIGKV
# T1 sequence (looked up) 2: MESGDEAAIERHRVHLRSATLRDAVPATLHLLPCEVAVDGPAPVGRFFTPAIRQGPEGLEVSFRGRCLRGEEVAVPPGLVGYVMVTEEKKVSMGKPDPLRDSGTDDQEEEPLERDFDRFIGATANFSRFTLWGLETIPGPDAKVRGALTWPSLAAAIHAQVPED
# T1 sequence (looked up) 3: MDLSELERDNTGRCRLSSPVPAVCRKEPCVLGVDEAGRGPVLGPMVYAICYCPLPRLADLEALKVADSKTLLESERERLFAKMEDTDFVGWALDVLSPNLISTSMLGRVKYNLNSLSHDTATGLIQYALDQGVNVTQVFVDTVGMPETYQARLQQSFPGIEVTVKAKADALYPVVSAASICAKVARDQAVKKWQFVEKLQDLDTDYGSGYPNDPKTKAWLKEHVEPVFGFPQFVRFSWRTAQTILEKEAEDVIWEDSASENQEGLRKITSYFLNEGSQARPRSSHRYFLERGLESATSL
# B1: recombinant hRTF2 (natural protein, human, UniProt Q9BY42 1-306, looked up)
# chain: MGCDGGTIPKRHELVKGPKKVEKVDKDAELVAQWNYCTLSQEILRRPIVACELGRLYNKDAVIEFLLDKSAEKALGKAASHIKSIKNVTELKLSDNPAWEGDKGNTKGDKHDDLQRARFICPVVGLEMNGRHRFCFLRCCGCVFSERALKEIKAEVCHTCGAAFQEDDVIMLNGTKEDVDVLKTRMEERRLRAKLEKKTKKPKAAESVSKPDVSEEAPGPSKVKTGKPEEASLDSREKKTNLAPKSTAMNESSSGKAGKPPCGATKRSIADSEESEAYKSLFTTHSSAKRSKEESAHWVTHTSYCF
# notes: Replication Termination Factor 2 (RTF2), human (hRTF2); source: E. coli, purified (IMAC, then AKTA FPLC)
# B2: recombinant GFP-tagged RTF2 (natural protein, human, UniProt Q9BY42 1-306, looked up)
# chain: MGCDGGTIPKRHELVKGPKKVEKVDKDAELVAQWNYCTLSQEILRRPIVACELGRLYNKDAVIEFLLDKSAEKALGKAASHIKSIKNVTELKLSDNPAWEGDKGNTKGDKHDDLQRARFICPVVGLEMNGRHRFCFLRCCGCVFSERALKEIKAEVCHTCGAAFQEDDVIMLNGTKEDVDVLKTRMEERRLRAKLEKKTKKPKAAESVSKPDVSEEAPGPSKVKTGKPEEASLDSREKKTNLAPKSTAMNESSSGKAGKPPCGATKRSIADSEESEAYKSLFTTHSSAKRSKEESAHWVTHTSYCF
# notes: Replication Termination Factor 2 (RTF2), human (hRTF2 in the methods on recombinant proteins); also called GFP-RTF2; source: E. coli, purified
# Legend:
# [1] = target: T1, recombinant RNase H2 complex …; assay: co-IP; recombinant RNase H2 complex and RTF2 (0.5, 1, 2, 4 pmol) from E. coli mixed 2 hr at 4 °C in 20 mM HEPES pH 7.5, 1 mM DTT, 0.01% NP-40, 5% glycerol, 0.1 mg/mL BSA, 50 mM NaCl, benzonase; NaCl raised to 150 mM; Dynabeads 1 hr at 4 °C; immunoblot; details: both partners purified
# [2] = target: T1, recombinant RNase H2 complex …; assay: co-IP; recombinant GFP-tagged RTF2 (0.5, 1, 2, 4 pmol) and RNase H2 complex from E. coli, immunoprecipitation as for untagged RTF2 (20 mM HEPES pH 7.5, 150 mM NaCl final, benzonase, Dynabeads); immunoblot; details: both partners purified
Binder,binding result [1],binding result [2]
B1,binds,–
B2,–,binds

# — PMC10908796, “RTF2 controls replication repriming and ribonucleotide excision at the replisome” (Nature Communications, 2024)
